From patent US20150064179A1 (BIOTEST, published 2015) come the findings set out here.

In test [1] the target is T1, human interleukin 10 (R&D Systems, Cat. No. 217-IL/CF) (human, UniProt P22301 19-178).
T1 construct: also called hIL-10; human IL-10
In words: antigen ELISA on plate-coated hIL-10 (2 µg/ml), COS-7 supernatants adjusted to the same antibody concentration; one concentration, not given. The source says: In brief, the expression vectors coding for the light chain and for the heavy chain were transiently cotransfected into COS-7 cells by calcium phosphate precipitation in DMEM containing 10% FCS in a 24-well format. After transfection the medium was replaced by the serum free medium CHO-S-SFM II (Invitrogen, Germany) and the supernatants of the COS-7 cells were collected 2-3 days after transfection. The antibody titer of the humanized antibodies secreted into the supernatants of transfected COS-7 cells were analyzed by a sandwich ELISA. Based on the determined antibody concentrations supernatants of all samples were adjusted to the same antibody concentrations, and all samples were used to analyze binding to human IL-10 in an antigen ELISA, whereby Maxisorb plates (Nunc, Germany) were coated with 2 μg/ml hIL-10 in PBS.
On the technique in general: ELISA stands for enzyme-linked immunosorbent assay.

Test [2] has as its target T1, human interleukin 10 (R&D Systems, Cat. …). In words: SPR Biacore 2000, hIL-10 immobilised on CM-5 chip, antibody as analyte, n=6. How it is done: (§1) Surface plasmon resonance analysis was used to measure the association and dissociation rate constants for binding of the different antibodies (murine, chimeric, 3 humanized variants) towards hIL-10 using BIACORE 2000 (Biacore AB, Uppsala, Sweden). hIL-10 was immobilized on a CM-5 sensor chip according to manufacturers conditions. hIL-10 was immobilized by adding a 50 μl aliquot of 20 μg/ml at a flow rate of 5 μl/minute resulting in an immobilization density of 320RU. The immobilized hIL-10 surface was regenerated in a two step cycle by using 0.1M carbonate buffer pH 9.2 and 0.01M HCL/1M NaCl at flow rates of 50 μl/minute for one minute each. Each antibody sample was analyzed at least 4 times in antibody concentration ranges of 20-0.15 μg/ml. Calculations from the sensograms were performed by using the BIA evaluation version 3 (1999) software.
A general note: SPR reads the build-up and loss of mass on a sensor chip optically.

The target is the same in test [3]. In words: SPR Biacore 2000, hIL-10 immobilised on CM-5 chip. How it is done: as §1
However, slight differences are detectable. […] Slight differences in association and dissociation rates are also detectable.

Test [4] has the same target. Put plainly: SPR Biacore 2000, hIL-10 immobilised on CM-5 chip, antibody as analyte, n=4. How it is done:
as §1

T1 sequence (P22301 19-178): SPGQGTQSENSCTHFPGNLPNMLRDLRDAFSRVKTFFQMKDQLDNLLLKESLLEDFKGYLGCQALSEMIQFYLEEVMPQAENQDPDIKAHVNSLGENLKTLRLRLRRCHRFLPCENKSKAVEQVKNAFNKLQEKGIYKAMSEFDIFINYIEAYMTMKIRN

B1: humanized antibody variant hVH13/hVL8 (antibody, V domains shown)
VH: EVQLVESGGGLVQPGGSLRLSCAASGFTFSTYGVHWVRQAPGKGLEWVSVIWRGGSTDYSAAFMSRFTISRDNSKNTVYFQMNSLRAEDTAVYYCARQAYGHYMDYWGQGTLVTVSS
VL: DVLMTQSPLSLPVTLGQPASISCRSSQNIVHSNGNTYLEWFQQRPGQSPRLLIYKVSNRFSGVPDRFSGSGSGTDFTLKISRVEAEDVGVYYCFQGSHVPWTFGGGTKVEIK
notes: human constant kappa and gamma-1; tested as COS-7 supernatant
Regarding B1, the binding result in test [1] was “binds”.

B2: humanized antibody variant hVH18/hVL7 (antibody, V domains shown)
VH: EVQLVESGGGLVQPGGSLRLSCAASGFSFATYGVHWVRQSPGKGLEWLGVIWRGGSTDYSAAFMSRLTISKDNSKNTLYLQMNSLRAEDTAVYYCARQAYGHYMDYWGQGTLVTVSS
VL: DVVMTQSPLSLPVTLGQPASISCRSSQNIVHSNGNTYLEWYLQRPGQSPRLLIYKVSNRFSGVPDRFSGSGSGTDFTLKISRVEAEDVGVYYCFQGSHVPWTFGQGTKVEIK
notes: as for B1
For B2, the binding result in test [1] is reported as “binds”.

B3: BT-063-1 (hVH20/hVL7) (antibody, V domains shown)
VH: EVQLVESGGGLVQPGGSLRLSCAASGFSFATYGVHWVRQSPGKGLEWLGVIWRGGSTDYSAAFMSRLTISKDNSKNTVYFQMNSLRAEDTAVYFCAKQAYGHYMDYWGQGTSVTVSS
VL: DVVMTQSPLSLPVTLGQPASISCRSSQNIVHSNGNTYLEWYLQRPGQSPRLLIYKVSNRFSGVPDRFSGSGSGTDFTLKISRVEAEDVGVYYCFQGSHVPWTFGQGTKVEIK
notes: also called BT-063 variant hVH20/hVL7
By Kd is commonly meant a measure of binding affinity in units of concentration. Low values mean a tighter complex, high ones a looser complex. The koff is a measure of how fast the partners let go of each other. Broadly, the kon is the second-order rate constant of association. A low value points to slow association. In the case of B3, in test [2], the dissociation constant (Kd) is 1.22 nM, the koff worked out at 0.00103 s⁻¹ and the kon is 1.21e+06 M⁻¹ s⁻¹.

B4: BT-063-2 (hVH20/hVL8) (antibody, V domains shown)
VH: EVQLVESGGGLVQPGGSLRLSCAASGFSFATYGVHWVRQSPGKGLEWLGVIWRGGSTDYSAAFMSRLTISKDNSKNTVYFQMNSLRAEDTAVYFCAKQAYGHYMDYWGQGTSVTVSS
VL: DVLMTQSPLSLPVTLGQPASISCRSSQNIVHSNGNTYLEWFQQRPGQSPRLLIYKVSNRFSGVPDRFSGSGSGTDFTLKISRVEAEDVGVYYCFQGSHVPWTFGGGTKVEIK
notes: also called BT-063 variant hVH20/hVL8
Consider B4, for which, in test [3], the “factor of reduced affinity compared to the murine B-N10” value is ~3 fold. In test [4], this molecule gave a Kd of 2.81 nM, an off-rate constant (koff) of 0.00164 s⁻¹ and an on-rate constant (kon) of 1.21e+06 M⁻¹ s⁻¹.

B5: humanized antibody variant hVH9/hVL7 (antibody, V domains shown)
VH: EVQLVESGGGLVQPGGSLRLSCAASGFTFSTYGVHWVRQAPGKGLEWVSVIWRGGSTDYSAAFMSRFTISRDNSKNTLYLQMNSLRAEDTAVYFCAKQAYGHYMDYWGQGTLVTVSS
VL: DVVMTQSPLSLPVTLGQPASISCRSSQNIVHSNGNTYLEWYLQRPGQSPRLLIYKVSNRFSGVPDRFSGSGSGTDFTLKISRVEAEDVGVYYCFQGSHVPWTFGQGTKVEIK
notes: as for B1
In the case of B5, the binding result in test [1] is recorded as “binds”.

B6: humanized antibody variant hVH26/hVL8 (antibody, V domains shown)
VH: EVQLVESGGGLVQPGGSLRLSCAASGFSFATYGVHWVRQSPGKGLEWLGVIWRGGSTDYSAAFMSRLTISKDNSKNTVYLQMNSLRAEDTAVYFCAKQAYGHYMDYWGQGTSVTVSS
VL: DVLMTQSPLSLPVTLGQPASISCRSSQNIVHSNGNTYLEWFQQRPGQSPRLLIYKVSNRFSGVPDRFSGSGSGTDFTLKISRVEAEDVGVYYCFQGSHVPWTFGGGTKVEIK
notes: as for B1
As for B6, in test [1], the binding result is on record as “binds”.

B7: humanized antibody variant hVH13/hVL7 (antibody, V domains shown)
VH: EVQLVESGGGLVQPGGSLRLSCAASGFTFSTYGVHWVRQAPGKGLEWVSVIWRGGSTDYSAAFMSRFTISRDNSKNTVYFQMNSLRAEDTAVYYCARQAYGHYMDYWGQGTLVTVSS
VL: DVVMTQSPLSLPVTLGQPASISCRSSQNIVHSNGNTYLEWYLQRPGQSPRLLIYKVSNRFSGVPDRFSGSGSGTDFTLKISRVEAEDVGVYYCFQGSHVPWTFGQGTKVEIK
notes: as for B1
Consider B7, for which the binding result in test [1] is given as “binds”.

B8: humanized antibody variant hVH1/hVL8 (antibody, V domains shown)
VH: EVQLVESGGGLVQPGGSLRLSCAASGFTFSTYGVHWVRQAPGKGLEWVSVIWRGGSTDYSAAFMSRFTISRDNSKNTLYLQMNSLRAEDTAVYYCARQAYGHYMDYWGQGTLVTVSS
VL: DVLMTQSPLSLPVTLGQPASISCRSSQNIVHSNGNTYLEWFQQRPGQSPRLLIYKVSNRFSGVPDRFSGSGSGTDFTLKISRVEAEDVGVYYCFQGSHVPWTFGGGTKVEIK
notes: as for B1
Turning to B8, in test [1], the binding result was “binds”.

B9: humanized antibody variant hVH28/hVL8 (antibody, V domains shown)
VH: EVQLVESGGGLVQPGGSLRLSCAASGFSFATYGVHWVRQSPGKGLEWLGVIWRGGSTDYSAAFMSRLTISKDNSKNTVYFQMNSLRAEDTAVYYCARQAYGHYMDYWGQGTSVTVSS
VL: DVLMTQSPLSLPVTLGQPASISCRSSQNIVHSNGNTYLEWFQQRPGQSPRLLIYKVSNRFSGVPDRFSGSGSGTDFTLKISRVEAEDVGVYYCFQGSHVPWTFGGGTKVEIK
notes: as for B1
Take B9: in test [1], the binding result is “binds”.

B10: humanized antibody variant hVH18/hVL8 (antibody, V domains shown)
VH: EVQLVESGGGLVQPGGSLRLSCAASGFSFATYGVHWVRQSPGKGLEWLGVIWRGGSTDYSAAFMSRLTISKDNSKNTLYLQMNSLRAEDTAVYYCARQAYGHYMDYWGQGTLVTVSS
VL: DVLMTQSPLSLPVTLGQPASISCRSSQNIVHSNGNTYLEWFQQRPGQSPRLLIYKVSNRFSGVPDRFSGSGSGTDFTLKISRVEAEDVGVYYCFQGSHVPWTFGGGTKVEIK
notes: as for B1
Turning to B10, the binding result in test [1] is reported as “binds”.

B11: humanized antibody variant hVH28/hVL7 (antibody, V domains shown)
VH: EVQLVESGGGLVQPGGSLRLSCAASGFSFATYGVHWVRQSPGKGLEWLGVIWRGGSTDYSAAFMSRLTISKDNSKNTVYFQMNSLRAEDTAVYYCARQAYGHYMDYWGQGTSVTVSS
VL: DVVMTQSPLSLPVTLGQPASISCRSSQNIVHSNGNTYLEWYLQRPGQSPRLLIYKVSNRFSGVPDRFSGSGSGTDFTLKISRVEAEDVGVYYCFQGSHVPWTFGQGTKVEIK
notes: as for B1
Regarding B11, the binding result in test [1] was “binds”.

B12: humanized antibody variant hVH1/hVL7 (antibody, V domains shown)
VH: EVQLVESGGGLVQPGGSLRLSCAASGFTFSTYGVHWVRQAPGKGLEWVSVIWRGGSTDYSAAFMSRFTISRDNSKNTLYLQMNSLRAEDTAVYYCARQAYGHYMDYWGQGTLVTVSS
VL: DVVMTQSPLSLPVTLGQPASISCRSSQNIVHSNGNTYLEWYLQRPGQSPRLLIYKVSNRFSGVPDRFSGSGSGTDFTLKISRVEAEDVGVYYCFQGSHVPWTFGQGTKVEIK
notes: as for B1
Consider B12, for which the binding result in test [1] is given as “binds”.
